# In patent US20180155451A1 (published 2018):
# T1: FcγRIIa R (human, UniProt P12318 34-217)
# T1 construct: extracellular domain; also called FcgRIIa R; FcγRIIa type R
# T1 sequence (looked up): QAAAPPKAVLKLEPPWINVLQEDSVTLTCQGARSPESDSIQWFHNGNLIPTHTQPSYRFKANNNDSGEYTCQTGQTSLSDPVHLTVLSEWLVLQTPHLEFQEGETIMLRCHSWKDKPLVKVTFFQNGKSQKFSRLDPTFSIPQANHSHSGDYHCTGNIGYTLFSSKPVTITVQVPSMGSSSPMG
# T2: FcγRIIb (human, UniProt P31994 43-217)
# T2 construct: extracellular domain; also called FcgRIIb
# T2 sequence (looked up): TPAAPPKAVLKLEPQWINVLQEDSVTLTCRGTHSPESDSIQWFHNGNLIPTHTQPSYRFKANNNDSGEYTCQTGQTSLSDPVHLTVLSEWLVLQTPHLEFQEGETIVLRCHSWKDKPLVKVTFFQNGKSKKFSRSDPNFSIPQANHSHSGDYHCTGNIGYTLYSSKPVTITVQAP
# B1: GpH7-A5/GpH7-B3 variant A330_18N/GpL16-k0 (antibody, human IgG1, kappa)
# heavy 1: not shown
# heavy 2: not shown
# light: DIVMTQSPLSLPVTPGEPASISCQASESLVHSNRNTYLHWYLQKPGQSPQLLIYKVSNRFSGVPDRFSGSGSGTDFTLKISRVEAEDVGVYYCSQNTHVPPTFGQGTKVEIERTVAAPSVFIFPPSDEQLKSGTASVVCLLNNFYPREAKVQWKVDNALQSGNSQESVTEQDSKDSTYSLSSTLTLSKADYEKHKVYACEVTHQGLSSPVTKSFNRGEC
# notes: He Ab; IgG1; mutation in one H chain only
# B2: GpH7-A5/GpH7-B3 variant I336_20W/GpL16-k0 (antibody, human IgG1, kappa)
# heavy 1: not shown
# heavy 2: not shown
# light: DIVMTQSPLSLPVTPGEPASISCQASESLVHSNRNTYLHWYLQKPGQSPQLLIYKVSNRFSGVPDRFSGSGSGTDFTLKISRVEAEDVGVYYCSQNTHVPPTFGQGTKVEIERTVAAPSVFIFPPSDEQLKSGTASVVCLLNNFYPREAKVQWKVDNALQSGNSQESVTEQDSKDSTYSLSSTLTLSKADYEKHKVYACEVTHQGLSSPVTKSFNRGEC
# notes: as for B1
# B3: GpH7-A5/GpH7-B3 variant N325_02A/GpL16-k0 (antibody, human IgG1, kappa)
# heavy 1: not shown
# heavy 2: not shown
# light: DIVMTQSPLSLPVTPGEPASISCQASESLVHSNRNTYLHWYLQKPGQSPQLLIYKVSNRFSGVPDRFSGSGSGTDFTLKISRVEAEDVGVYYCSQNTHVPPTFGQGTKVEIERTVAAPSVFIFPPSDEQLKSGTASVVCLLNNFYPREAKVQWKVDNALQSGNSQESVTEQDSKDSTYSLSSTLTLSKADYEKHKVYACEVTHQGLSSPVTKSFNRGEC
# notes: as for B1
# B4: GpH7-A5/GpH7-B3 variant P329_10E/GpL16-k0 (antibody, human IgG1, kappa)
# heavy 1: not shown
# heavy 2: not shown
# light: DIVMTQSPLSLPVTPGEPASISCQASESLVHSNRNTYLHWYLQKPGQSPQLLIYKVSNRFSGVPDRFSGSGSGTDFTLKISRVEAEDVGVYYCSQNTHVPPTFGQGTKVEIERTVAAPSVFIFPPSDEQLKSGTASVVCLLNNFYPREAKVQWKVDNALQSGNSQESVTEQDSKDSTYSLSSTLTLSKADYEKHKVYACEVTHQGLSSPVTKSFNRGEC
# notes: He Ab; IgG1; mutation in one H chain only; also called GpH7-A5/GpH7-B15/GpL16-k0
# B5: GpH7-A5/GpH7-B3 variant P329_03V/GpL16-k0 (antibody, human IgG1, kappa)
# heavy 1: not shown
# heavy 2: not shown
# light: DIVMTQSPLSLPVTPGEPASISCQASESLVHSNRNTYLHWYLQKPGQSPQLLIYKVSNRFSGVPDRFSGSGSGTDFTLKISRVEAEDVGVYYCSQNTHVPPTFGQGTKVEIERTVAAPSVFIFPPSDEQLKSGTASVVCLLNNFYPREAKVQWKVDNALQSGNSQESVTEQDSKDSTYSLSSTLTLSKADYEKHKVYACEVTHQGLSSPVTKSFNRGEC
# notes: as for B1
# B6: GpH7-A5/GpH7-B3 variant P329_06M/GpL16-k0 (antibody, human IgG1, kappa)
# heavy 1: not shown
# heavy 2: not shown
# light: DIVMTQSPLSLPVTPGEPASISCQASESLVHSNRNTYLHWYLQKPGQSPQLLIYKVSNRFSGVPDRFSGSGSGTDFTLKISRVEAEDVGVYYCSQNTHVPPTFGQGTKVEIERTVAAPSVFIFPPSDEQLKSGTASVVCLLNNFYPREAKVQWKVDNALQSGNSQESVTEQDSKDSTYSLSSTLTLSKADYEKHKVYACEVTHQGLSSPVTKSFNRGEC
# notes: as for B1
# B7: GpH7-A5/GpH7-B3 variant P329_08L/GpL16-k0 (antibody, human IgG1, kappa)
# heavy 1: not shown
# heavy 2: not shown
# light: DIVMTQSPLSLPVTPGEPASISCQASESLVHSNRNTYLHWYLQKPGQSPQLLIYKVSNRFSGVPDRFSGSGSGTDFTLKISRVEAEDVGVYYCSQNTHVPPTFGQGTKVEIERTVAAPSVFIFPPSDEQLKSGTASVVCLLNNFYPREAKVQWKVDNALQSGNSQESVTEQDSKDSTYSLSSTLTLSKADYEKHKVYACEVTHQGLSSPVTKSFNRGEC
# notes: as for B1
# B8: GpH7-A5/GpH7-B3 variant N325_12R/GpL16-k0 (antibody, human IgG1, kappa)
# heavy 1: not shown
# heavy 2: not shown
# light: DIVMTQSPLSLPVTPGEPASISCQASESLVHSNRNTYLHWYLQKPGQSPQLLIYKVSNRFSGVPDRFSGSGSGTDFTLKISRVEAEDVGVYYCSQNTHVPPTFGQGTKVEIERTVAAPSVFIFPPSDEQLKSGTASVVCLLNNFYPREAKVQWKVDNALQSGNSQESVTEQDSKDSTYSLSSTLTLSKADYEKHKVYACEVTHQGLSSPVTKSFNRGEC
# notes: as for B1
# B9: GpH7-A5/GpH7-B3 variant N325_11K/GpL16-k0 (antibody, human IgG1, kappa)
# heavy 1: not shown
# heavy 2: not shown
# light: DIVMTQSPLSLPVTPGEPASISCQASESLVHSNRNTYLHWYLQKPGQSPQLLIYKVSNRFSGVPDRFSGSGSGTDFTLKISRVEAEDVGVYYCSQNTHVPPTFGQGTKVEIERTVAAPSVFIFPPSDEQLKSGTASVVCLLNNFYPREAKVQWKVDNALQSGNSQESVTEQDSKDSTYSLSSTLTLSKADYEKHKVYACEVTHQGLSSPVTKSFNRGEC
# notes: as for B1
# B10: GpH7-A5/GpH7-B3 variant P329_04F/GpL16-k0 (antibody, human IgG1, kappa)
# heavy 1: not shown
# heavy 2: not shown
# light: DIVMTQSPLSLPVTPGEPASISCQASESLVHSNRNTYLHWYLQKPGQSPQLLIYKVSNRFSGVPDRFSGSGSGTDFTLKISRVEAEDVGVYYCSQNTHVPPTFGQGTKVEIERTVAAPSVFIFPPSDEQLKSGTASVVCLLNNFYPREAKVQWKVDNALQSGNSQESVTEQDSKDSTYSLSSTLTLSKADYEKHKVYACEVTHQGLSSPVTKSFNRGEC
# notes: as for B1
# B11: GpH7-A5/GpH7-B3 variant P329_07I/GpL16-k0 (antibody, human IgG1, kappa)
# heavy 1: not shown
# heavy 2: not shown
# light: DIVMTQSPLSLPVTPGEPASISCQASESLVHSNRNTYLHWYLQKPGQSPQLLIYKVSNRFSGVPDRFSGSGSGTDFTLKISRVEAEDVGVYYCSQNTHVPPTFGQGTKVEIERTVAAPSVFIFPPSDEQLKSGTASVVCLLNNFYPREAKVQWKVDNALQSGNSQESVTEQDSKDSTYSLSSTLTLSKADYEKHKVYACEVTHQGLSSPVTKSFNRGEC
# notes: as for B1
# B12: GpH7-A5/GpH7-B3 variant N325_05P/GpL16-k0 (antibody, human IgG1, kappa)
# heavy 1: not shown
# heavy 2: not shown
# light: DIVMTQSPLSLPVTPGEPASISCQASESLVHSNRNTYLHWYLQKPGQSPQLLIYKVSNRFSGVPDRFSGSGSGTDFTLKISRVEAEDVGVYYCSQNTHVPPTFGQGTKVEIERTVAAPSVFIFPPSDEQLKSGTASVVCLLNNFYPREAKVQWKVDNALQSGNSQESVTEQDSKDSTYSLSSTLTLSKADYEKHKVYACEVTHQGLSSPVTKSFNRGEC
# notes: as for B1
# B13: GpH7-A5/GpH7-B3 variant P329_09D/GpL16-k0 (antibody, human IgG1, kappa)
# heavy 1: not shown
# heavy 2: not shown
# light: DIVMTQSPLSLPVTPGEPASISCQASESLVHSNRNTYLHWYLQKPGQSPQLLIYKVSNRFSGVPDRFSGSGSGTDFTLKISRVEAEDVGVYYCSQNTHVPPTFGQGTKVEIERTVAAPSVFIFPPSDEQLKSGTASVVCLLNNFYPREAKVQWKVDNALQSGNSQESVTEQDSKDSTYSLSSTLTLSKADYEKHKVYACEVTHQGLSSPVTKSFNRGEC
# notes: He Ab; IgG1; mutation in one H chain only; also called GpH7-A5/GpH7-B14/GpL16-k0
# B14: GpH7-A5/GpH7-B3 variant N325_16H/GpL16-k0 (antibody, human IgG1, kappa)
# heavy 1: not shown
# heavy 2: not shown
# light: DIVMTQSPLSLPVTPGEPASISCQASESLVHSNRNTYLHWYLQKPGQSPQLLIYKVSNRFSGVPDRFSGSGSGTDFTLKISRVEAEDVGVYYCSQNTHVPPTFGQGTKVEIERTVAAPSVFIFPPSDEQLKSGTASVVCLLNNFYPREAKVQWKVDNALQSGNSQESVTEQDSKDSTYSLSSTLTLSKADYEKHKVYACEVTHQGLSSPVTKSFNRGEC
# notes: as for B1
# B15: GpH7-A5/GpH7-B3 variant N325_19Q/GpL16-k0 (antibody, human IgG1, kappa)
# heavy 1: not shown
# heavy 2: not shown
# light: DIVMTQSPLSLPVTPGEPASISCQASESLVHSNRNTYLHWYLQKPGQSPQLLIYKVSNRFSGVPDRFSGSGSGTDFTLKISRVEAEDVGVYYCSQNTHVPPTFGQGTKVEIERTVAAPSVFIFPPSDEQLKSGTASVVCLLNNFYPREAKVQWKVDNALQSGNSQESVTEQDSKDSTYSLSSTLTLSKADYEKHKVYACEVTHQGLSSPVTKSFNRGEC
# notes: as for B1
# B16: GpH7-A5/GpH7-B3 variant P329_02A/GpL16-k0 (antibody, human IgG1, kappa)
# heavy 1: not shown
# heavy 2: not shown
# light: DIVMTQSPLSLPVTPGEPASISCQASESLVHSNRNTYLHWYLQKPGQSPQLLIYKVSNRFSGVPDRFSGSGSGTDFTLKISRVEAEDVGVYYCSQNTHVPPTFGQGTKVEIERTVAAPSVFIFPPSDEQLKSGTASVVCLLNNFYPREAKVQWKVDNALQSGNSQESVTEQDSKDSTYSLSSTLTLSKADYEKHKVYACEVTHQGLSSPVTKSFNRGEC
# notes: as for B1
# What was measured:
# FcγRIIa R [1] = biological target: T1, FcγRIIa R; assay: He/Con_2aR divided by He/Con_2b (FcγRIIa R over FcγRIIb); SPR (Biacore)
# FcγRIIb = biological target: T2, FcγRIIb; assay: SPR (Biacore), captured antibody, FcγR analyte; binding relative to GpH7-A5/GpH7-B3/GpL16-k0 = 100
# FcγRIIa R [2] = biological target: T1, FcγRIIa R; assay: as above
IIaR/IIb (He_2aR/2b) (FcγRIIa R [1]) [ratio],He/Con_2b (IIb binding) (FcγRIIb) [control=100],He/Con_2aR (IIaR binding) (FcγRIIa R [2]) [control=100],Binder
1.27,63.7,81.1,B1
1.5,20.3,30.3,B2
1.31,64.4,84.1,B3
1.23,52.7,64.8,B4
1.4,38.5,53.8,B5
1.47,29.1,42.7,B6
1.47,29.1,42.8,B7
1.37,19.1,26.1,B8
1.57,10.4,16.2,B9
1.39,32.2,44.7,B10
1.44,34.6,49.6,B11
1.63,26,42.2,B12
1.27,53.5,67.8,B13
1.27,70.1,89,B14
1.33,69.1,92.1,B15
1.45,40.5,58.9,B16
